Source: article PMC4967814 (Cell, 2016)

Tests used:
[1] = target: T1, human IL17F (Homo sapiens, UniProt Q96PD4); assay: ELISA; IL17F immobilized; mAbs and germline counterparts added
T1 construct: interleukin-17F, human

[2] = target: T2, recombinant human IFNω (Homo sapiens, UniProt P05000); assay: SPR; antibodies 19D11 and 26B9 immobilized on Biacore chips; different concentrations of recombinant human IFNs passed over; Biacore T200; settings: both partners purified
T2 construct: interferon omega-1, human; source: recombinant

[3] = target: T3, human IL22 (Homo sapiens, UniProt Q9GZX6); assay: SPR; Biacore T200; who was immobilised is not told for these mAbs (values of Table S3); settings: both partners purified
T3 construct: interleukin-22, human; also called interleukin-22

[4] = target: T1, human IL17F; assay: as above; settings: both partners purified
[5] = target: T4, recombinant human IFNα4 (Homo sapiens, UniProt P05014); assay: SPR; antibodies 19D11 and 26B9 immobilized on Biacore chips; different concentrations of recombinant human IFNs passed over; Biacore T200; settings: both partners purified
T4 construct: interferon alpha-4, human; source: recombinant

[6] = target: T5, recombinant human IFNα14 (Homo sapiens, UniProt P01570); assay: as above; settings: both partners purified
T5 construct: interferon alpha-14, human; source: recombinant
T5 sequence (P01570 24-189): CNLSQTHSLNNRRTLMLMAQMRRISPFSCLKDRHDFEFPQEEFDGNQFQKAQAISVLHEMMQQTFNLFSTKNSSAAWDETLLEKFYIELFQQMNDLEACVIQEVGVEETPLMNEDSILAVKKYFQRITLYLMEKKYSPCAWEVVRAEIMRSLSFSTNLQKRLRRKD

T3 sequence (Q9GZX6 34-179): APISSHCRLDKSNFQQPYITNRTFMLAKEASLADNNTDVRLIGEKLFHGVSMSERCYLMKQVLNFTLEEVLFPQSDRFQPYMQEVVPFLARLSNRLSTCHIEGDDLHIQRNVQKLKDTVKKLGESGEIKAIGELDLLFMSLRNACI
T2 sequence (P05000 22-195): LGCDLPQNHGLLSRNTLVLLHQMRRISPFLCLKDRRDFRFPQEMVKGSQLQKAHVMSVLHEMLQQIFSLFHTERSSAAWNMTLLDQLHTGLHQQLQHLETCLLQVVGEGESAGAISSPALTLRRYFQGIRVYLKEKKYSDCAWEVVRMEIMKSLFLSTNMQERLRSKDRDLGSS
T1 sequence (Q96PD4 31-163): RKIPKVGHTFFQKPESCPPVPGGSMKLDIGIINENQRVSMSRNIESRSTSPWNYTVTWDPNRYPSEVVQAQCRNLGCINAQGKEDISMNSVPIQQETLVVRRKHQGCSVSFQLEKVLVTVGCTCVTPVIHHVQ
T4 sequence (P05014 24-189): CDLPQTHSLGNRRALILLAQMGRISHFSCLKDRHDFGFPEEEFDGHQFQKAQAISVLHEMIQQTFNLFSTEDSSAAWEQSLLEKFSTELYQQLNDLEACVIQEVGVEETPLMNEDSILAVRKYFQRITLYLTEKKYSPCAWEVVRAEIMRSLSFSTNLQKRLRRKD

B1: 9A2, patient-derived IL17F-reactive mAb (antibody, V domains shown)
VH: EVQLEESGGGLVQPGGSLRLSCAASGFPFSNYEMNWVRQAPGKGLEWISYISVSGGPAHYADSVKGRFTISRDDATKSLFLQMNRLRADDTAVYYCVRREYVTGRNYNYYPYMDVWGTGTTVTVSP
VL: DIQMTQSPSSLSASVGDRVTITCRASQTISDYLNWYQHKPGEAPKLLIYSASTLQRGVPSRFSGSGSGTDFVFTISSLQSDDFATYYCQQTSSTALTFGGGTKVEVK
notes: source: recombinant
[1]
  binding result: binds

B2: 19D11, APS1/APECED patient-derived anti-IFN monoclonal antibody (antibody, V domains shown)
VH: QVQLVQSGAEVKRPGSSVRVSCRASGDTFSSYPISWVRQAPGQGLEWMGRILPALGVTNYAQNFRGRITITADKSPLTAYLELSSLRFEDTAVYYCASPSADIIPSILGTTLFAFWGQGSLVTVSS
VL: EIVLTQSPGTLSLSPGEGATLSCRASQNVSRHYLTWYQQKPGQSPRLLIYGGSSRATGVPDRFSGGGSGTDFTLTISRLEPEDFAVFYCQSYHSPPPVYTFGQGTKVEIK
notes: V regions cloned into vectors providing IgG1 and Ig-kappa constant regions; source: recombinant, harvested from transfected CHO cells (SPR); recombinant antibodies were also produced in HEK293T cells
[2]
  binding result: no binding

B3: 30G1, patient-derived IgGκ antibody specific for IL22 (antibody, V domains shown)
VH: EVQLLESGGGLVQPGGSLRLSCAASGFTFSTYAMSWVRQAPGKGLEWVSTITSSGGATYHADSVKGRLTISRDNSKNTLYLEMNSLRVEDTAVYYCAKDWGRTVYAVIKDLDIWGQGTLVTVSS
VL: EIVMTQSPAILSVSPGERATLSCRASQSVSNYLAWFQQKPGQAPRLLIYDTSKRATGTPARFSGSGSGTDFTLTISSLEPEDFAVYFCQQRSDWPQYTFGQGTKLEIK
notes: kappa light chain; IgG1 kappa by the cloning vectors; source: recombinant
[3]
  Kd: 37 pM

B4: 17E3, patient-derived IgGκ mAb specific for IL17F (antibody, V domains shown)
VH: QVQLVQSGAEVAKPGASVRLSCKASGFSFIKYYMHWVRQAPGQGLEWMGVIEPTGGGTSSAQKFRDRVTLSRDTSTATVHLEVSRLTLEDTGIYFCVRDSIYCKHGTCHRTVIDAFDIWGQGTAVTVSS
VL: DIQMTQSPSSLSASVGDRVTITCRSSQDIKNDLAWYQQKPGKAPERLIYAASNLQSGVPSRFSGSGSGTEFSLTISGLQPEDFATYYCLQHNSYPLLTFGGGTKVEIK
notes: as for B3
[4]
  Kd: < 10 pM

B5: 26B9, APS1/APECED patient-derived anti-IFN monoclonal antibody (antibody, V domains shown)
VH: QILLQESGPGLVKPTETLSLTCSVSGDSISDSSHYWAWIRQPPGKGPEWIGSVYFSSMTHYNPSLKSRVSISVDKPKNQFSLKVTSVTVADTATYYCARQALARVGAMNWFDPWGQGSLVTVSS
VL: DIIMTQSPDSLPVSLGEGVTINCKSSQSVFFTSSNKSCLAWYQQKPGKSPKLLIYWASTRQSGVPDRFRGSGSGTDFSLTITSLQAEDVAVYFCQQCQTSPPTFGGGTRLEIK
notes: as for B2
[5]
  binding result: binds
[6]
  Kd: 0.0328 pM
[2]
  binding result: binds

B6: fezakinumab, CHO cell-expressed form (in-house-expressed anti-IL22 mAb) (antibody, V domains shown)
VH: QVQLVQSGAEVKKPGASVKVSCKASGYTFTNYYMHWVRQAPGQGLEWVGWINPYTGSAFYAQKFRGRVTMTRDTSISTAYMELSRLRSDDTAVYYCAREPEKFDSDDSDVWGRGTLVTVSS
VL: QAVLTQPPSVSGAPGQRVTISCTGSSSNIGAGYGVHWYQQLPGTAPKLLIYGDSNRPSGVPDRFSGSKSGTSASLAITGLQAEDEADYYCQSYDNSLSGYVFGGGTQLTVL
notes: expressed as the patient mAbs (vectors providing IgG1 and light-chain constant regions); source: CHO cell-expressed; V regions ordered as CHO-codon-optimized synthetic constructs (GenScript)
[3]
  Kd: 54 pM

B7: 35G11, patient-derived IgGλ antibody specific for IL22 (antibody, V domains shown)
VH: QVQLVQSGSELRRPGASVNISCKASGYGFNTYAMNWVRQAPGQGPEWMGWINTDTGDPTYAQGFTGRFAFFLDTSASTAFLQITRLTGEDTAVYFCARTRNNWNGVYYHYSGLDVWGQGTTVTVSS
VL: QSVLTQPPSASGTPGQTVTISCSGSSPNLGDNYVYWYHQVPGTAPKLLIFRNTQRPSGVTDRFSGSKYGTSASLAISDLRSDDEGDFYCASWDDRLSRLVFGGGTKLTVL
notes: lambda light chain; IgG1 lambda by the cloning vectors; source: recombinant
[3]
  Kd: 39 pM
